Results on twelve molecules are retold here after patent US20250276075A1, “METHODS OF TREATING AXL-EXPRESSING CANCERS WITH ANTI-AXL ANTIBODIES, ANTIBODY FRAGMENTS AND THEIR IMMUNOCONJUGATES” (BIOATLA, INC., priority 2020, published 2025).

In experiment [1] the target is Axl (UniProt P30530). Nature of the experiment: ELISA, 1:3 dilution. In general terms: An ELISA detects its analyte on a solid surface through an enzyme-linked reagent.
Experiment [2] has as its target Axl (UniProt P30530). As to the kind of experiment: ELISA, 1:9 dilution.
Experiment [3] deals with T1, Axl (Homo sapiens, UniProt P30530).
T1 sequence (P30530 26-451 limits assumed): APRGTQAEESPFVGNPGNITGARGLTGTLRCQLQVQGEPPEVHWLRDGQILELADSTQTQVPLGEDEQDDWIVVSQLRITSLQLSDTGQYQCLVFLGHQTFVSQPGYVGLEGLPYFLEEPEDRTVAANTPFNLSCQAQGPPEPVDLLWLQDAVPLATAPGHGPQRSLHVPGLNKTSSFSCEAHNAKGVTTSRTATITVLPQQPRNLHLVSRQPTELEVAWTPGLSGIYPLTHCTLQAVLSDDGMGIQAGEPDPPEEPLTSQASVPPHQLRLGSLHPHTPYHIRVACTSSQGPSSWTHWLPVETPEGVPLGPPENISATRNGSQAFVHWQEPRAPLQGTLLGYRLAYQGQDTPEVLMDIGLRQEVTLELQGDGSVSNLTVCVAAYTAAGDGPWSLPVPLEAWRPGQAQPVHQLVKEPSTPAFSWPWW
Nature of the experiment: Affinity ELISA of CPE mutant antibodies for binding to Axl at pH 6.0 over pH 7.4. Particulars: for Affinity ELISA CPE mutant ratio (1:3, pH 6.0/7.4): 1:3 dilution; for Affinity ELISA CPE mutant ratio (1:9, pH 6.0/7.4): 1:9 dilution. An excerpt:
The DNA encoding the wild-type antibody was evolved to generate a mutant antibody library using Comprehensive Positional Evolution (CPE), which each position in the template antibody is randomized one at a time. Each mutant antibody in the library has only one single point mutation. The mutant antibodies in the library were generated by simultaneously screening for selective binding affinity to Axl at pH 6.0 over pH 7.4 by ELISA. Two mutant antibody dilutions were used: 1:3 and 1:9 dilutions. The mutant antibodies that have at least 1.5 ratio of binding affinity at pH 6.0 to at pH 7.4 under either 1:3 or 1:9 dilution are selected as conditionally active antibodies, with the single point mutations indicated in each of the heavy chain and light chain variable region (Tables 1 and 2).
A wild-type antibody to Axl was selected as the template antibody (with a heavy chain variable region of 063-hum10F10-HC in FIG. 1A and a light chain variable region of […]). The DNA encoding the wild-type antibody was evolved to generate a mutant antibody library using Comprehensive Positional Evolution (CPE), a method by which each position in the template antibody is randomized one at a time. Each mutant antibody in the library has only one single point mutation. The mutant antibodies in the library were generated by simultaneously screening for selective binding affinity to Axl at pH 6.0 over pH 7.4 as determined by ELISA.
Simultaneously, the expression level of the mutant antibodies was also optimized for the purpose of higher fields in a manufacturing process. The screening was done in serum using a FLAG tag because there were human antibodies in the serum which might cause false positives for the screening. The screening buffer was a carbonate buffer (Krebs buffer with ringer-standard buffer but different from PBS). […] Some of the selected mutant antibodies (scFv) were represented in FIG. 2 with their higher activity at pH 6.0 than at pH 7.4, while their activity ratios between pH 6.0 to pH 7.4 were at least 11 fold (FIG. 3).

Setting [4] is: heavy chain variable region mutants.
Setting [5] is: light chain variable region mutants.

B1: HC-T030A (antibody, V domains shown)
VH: EVQLVQSGAEVKKPGATVKISCKVSGYSFAGHTMNWIRQPPGKGLEWIGLIKPSNGGTSYNQKFKGRVTISADKSISTAYLQWSSLKASDTAMYYCAHGHYESYFAMDYWGQGTLVTVSS
VL: DIQMTQSPSSLSASVGDRVTITCKASQDVSSAVAWYQQKPGQAPRLLIYWASTRHTGVPSRFSGSGSGTEFTLTISSLQPDDFATYYCQEHFSTPLTFGQGTKVEIK
With B1, the Affinity ELISA CPE mutant ratio (1:3, pH 6.0/7.4) with Axl [1] was determined as 1.29; with Axl [3] (setting [4]), 1.292. The Affinity ELISA CPE mutant ratio (1:9, pH 6.0/7.4) with Axl [2] is 1.76; with Axl [3] (setting [4]), 1.762.

B2: LC-V029N (antibody, V domains shown)
VH: EVQLVQSGAEVKKPGATVKISCKVSGYSFTGHTMNWIRQPPGKGLEWIGLIKPSNGGTSYNQKFKGRVTISADKSISTAYLQWSSLKASDTAMYYCAHGHYESYFAMDYWGQGTLVTVSS
VL: DIQMTQSPSSLSASVGDRVTITCKASQDNSSAVAWYQQKPGQAPRLLIYWASTRHTGVPSRFSGSGSGTEFTLTISSLQPDDFATYYCQEHFSTPLTFGQGTKVEIK
Regarding B2, the Affinity ELISA CPE mutant ratio (1:3, pH 6.0/7.4) with Axl [1] was 2.6; in the experiment with Axl [3] (setting [5]), 2.595. Also, the results for the Affinity ELISA CPE mutant ratio (1:9, pH 6.0/7.4) with Axl [2] and in the experiment with Axl [3] (setting [5]) were 2.65 and 2.652, respectively.

B3: HC-N035I (antibody, V domains shown)
VH: EVQLVQSGAEVKKPGATVKISCKVSGYSFTGHTMIWIRQPPGKGLEWIGLIKPSNGGTSYNQKFKGRVTISADKSISTAYLQWSSLKASDTAMYYCAHGHYESYFAMDYWGQGTLVTVSS
VL: DIQMTQSPSSLSASVGDRVTITCKASQDVSSAVAWYQQKPGQAPRLLIYWASTRHTGVPSRFSGSGSGTEFTLTISSLQPDDFATYYCQEHFSTPLTFGQGTKVEIK
In the case of B3, the Affinity ELISA CPE mutant ratio (1:3, pH 6.0/7.4) was determined as 2.81 with Axl [1] and 2.814 with Axl [3] (setting [4]). Further, the Affinity ELISA CPE mutant ratio (1:9, pH 6.0/7.4) in the experiment with Axl [2] is 1.12; with Axl [3] (setting [4]), 1.121.

B4: LC-V029D (antibody, V domains shown)
VH: EVQLVQSGAEVKKPGATVKISCKVSGYSFTGHTMNWIRQPPGKGLEWIGLIKPSNGGTSYNQKFKGRVTISADKSISTAYLQWSSLKASDTAMYYCAHGHYESYFAMDYWGQGTLVTVSS
VL: DIQMTQSPSSLSASVGDRVTITCKASQDDSSAVAWYQQKPGQAPRLLIYWASTRHTGVPSRFSGSGSGTEFTLTISSLQPDDFATYYCQEHFSTPLTFGQGTKVEIK
On to B4, for which the values for the Affinity ELISA CPE mutant ratio (1:3, pH 6.0/7.4) with Axl [1] and with Axl [3] (setting [5]) were 2.88 and 2.882, respectively. Moreover, the Affinity ELISA CPE mutant ratio (1:9, pH 6.0/7.4) in the experiment with Axl [2] was 2.68; with Axl [3] (setting [5]), 2.679.

B5: HC-E102N (antibody, V domains shown)
VH: EVQLVQSGAEVKKPGATVKISCKVSGYSFTGHTMNWIRQPPGKGLEWIGLIKPSNGGTSYNQKFKGRVTISADKSISTAYLQWSSLKASDTAMYYCAHGHYNSYFAMDYWGQGTLVTVSS
VL: DIQMTQSPSSLSASVGDRVTITCKASQDVSSAVAWYQQKPGQAPRLLIYWASTRHTGVPSRFSGSGSGTEFTLTISSLQPDDFATYYCQEHFSTPLTFGQGTKVEIK
As for B5, the Affinity ELISA CPE mutant ratio (1:3, pH 6.0/7.4) with Axl [1] was determined as 1.52; with Axl [3] (setting [4]), 1.520. Also, the Affinity ELISA CPE mutant ratio (1:9, pH 6.0/7.4) with Axl [2] is 1.57; in the experiment with Axl [3] (setting [4]) it was 1.567.

B6: LC-H091Y (antibody, V domains shown)
VH: EVQLVQSGAEVKKPGATVKISCKVSGYSFTGHTMNWIRQPPGKGLEWIGLIKPSNGGTSYNQKFKGRVTISADKSISTAYLQWSSLKASDTAMYYCAHGHYESYFAMDYWGQGTLVTVSS
VL: DIQMTQSPSSLSASVGDRVTITCKASQDVSSAVAWYQQKPGQAPRLLIYWASTRHTGVPSRFSGSGSGTEFTLTISSLQPDDFATYYCQEYFSTPLTFGQGTKVEIK
B6: the Affinity ELISA CPE mutant ratio (1:3, pH 6.0/7.4) with Axl [1] came to 3.93; with Axl [3] (setting [5]), 3.931. The Affinity ELISA CPE mutant ratio (1:9, pH 6.0/7.4) is 5.13 with Axl [2] and 5.126 with Axl [3] (setting [5]).

B7: LC-H091T (antibody, V domains shown)
VH: EVQLVQSGAEVKKPGATVKISCKVSGYSFTGHTMNWIRQPPGKGLEWIGLIKPSNGGTSYNQKFKGRVTISADKSISTAYLQWSSLKASDTAMYYCAHGHYESYFAMDYWGQGTLVTVSS
VL: DIQMTQSPSSLSASVGDRVTITCKASQDVSSAVAWYQQKPGQAPRLLIYWASTRHTGVPSRFSGSGSGTEFTLTISSLQPDDFATYYCQETFSTPLTFGQGTKVEIK
For the molecule B7, the values for the Affinity ELISA CPE mutant ratio (1:3, pH 6.0/7.4) with Axl [1] and with Axl [3] (setting [5]) were 3.78 and 3.779, respectively. Also, the Affinity ELISA CPE mutant ratio (1:9, pH 6.0/7.4) with Axl [2] was determined as 3.78; in the experiment with Axl [3] (setting [5]) it was 3.781.

B8: LC-H091V (antibody, V domains shown)
VH: EVQLVQSGAEVKKPGATVKISCKVSGYSFTGHTMNWIRQPPGKGLEWIGLIKPSNGGTSYNQKFKGRVTISADKSISTAYLQWSSLKASDTAMYYCAHGHYESYFAMDYWGQGTLVTVSS
VL: DIQMTQSPSSLSASVGDRVTITCKASQDVSSAVAWYQQKPGQAPRLLIYWASTRHTGVPSRFSGSGSGTEFTLTISSLQPDDFATYYCQEVFSTPLTFGQGTKVEIK
On to B8, for which the Affinity ELISA CPE mutant ratio (1:3, pH 6.0/7.4) in the experiment with Axl [1] amounted to 4.13; with Axl [3] (setting [5]), 4.133. Moreover, the Affinity ELISA CPE mutant ratio (1:9, pH 6.0/7.4) stood at 1.17 with Axl [2] and 1.171 with Axl [3] (setting [5]).

B9: LC-V029W (antibody, V domains shown)
VH: EVQLVQSGAEVKKPGATVKISCKVSGYSFTGHTMNWIRQPPGKGLEWIGLIKPSNGGTSYNQKFKGRVTISADKSISTAYLQWSSLKASDTAMYYCAHGHYESYFAMDYWGQGTLVTVSS
VL: DIQMTQSPSSLSASVGDRVTITCKASQDWSSAVAWYQQKPGQAPRLLIYWASTRHTGVPSRFSGSGSGTEFTLTISSLQPDDFATYYCQEHFSTPLTFGQGTKVEIK
Consider B9, for which the Affinity ELISA CPE mutant ratio (1:3, pH 6.0/7.4) with Axl [1] turned out to be 2.31; with Axl [3] (setting [5]), 2.310. Further, the Affinity ELISA CPE mutant ratio (1:9, pH 6.0/7.4) in the experiment with Axl [2] turned out to be 2.35; in the experiment with Axl [3] (setting [5]), 2.353.

B10: HC-W110H (antibody, V domains shown)
VH: EVQLVQSGAEVKKPGATVKISCKVSGYSFTGHTMNWIRQPPGKGLEWIGLIKPSNGGTSYNQKFKGRVTISADKSISTAYLQWSSLKASDTAMYYCAHGHYESYFAMDYHGQGTLVTVSS
VL: DIQMTQSPSSLSASVGDRVTITCKASQDVSSAVAWYQQKPGQAPRLLIYWASTRHTGVPSRFSGSGSGTEFTLTISSLQPDDFATYYCQEHFSTPLTFGQGTKVEIK
As for B10, the Affinity ELISA CPE mutant ratio (1:3, pH 6.0/7.4) with Axl [1] was 7.99; in the experiment with Axl [3] (setting [4]) it was 7.993. Moreover, the Affinity ELISA CPE mutant ratio (1:9, pH 6.0/7.4) with Axl [2] and with Axl [3] (setting [4]) was 0.932 in each case.

B11: LC-H091S (antibody, V domains shown)
VH: EVQLVQSGAEVKKPGATVKISCKVSGYSFTGHTMNWIRQPPGKGLEWIGLIKPSNGGTSYNQKFKGRVTISADKSISTAYLQWSSLKASDTAMYYCAHGHYESYFAMDYWGQGTLVTVSS
VL: DIQMTQSPSSLSASVGDRVTITCKASQDVSSAVAWYQQKPGQAPRLLIYWASTRHTGVPSRFSGSGSGTEFTLTISSLQPDDFATYYCQESFSTPLTFGQGTKVEIK
Consider B11, for which the Affinity ELISA CPE mutant ratio (1:3, pH 6.0/7.4) in the experiment with Axl [1] came to 1.76; in the experiment with Axl [3] (setting [5]), 1.758. In addition, the Affinity ELISA CPE mutant ratio (1:9, pH 6.0/7.4) with Axl [2] was found to be 1.34; with Axl [3] (setting [5]) it was 1.336.

B12: LC-V029G (antibody, V domains shown)
VH: EVQLVQSGAEVKKPGATVKISCKVSGYSFTGHTMNWIRQPPGKGLEWIGLIKPSNGGTSYNQKFKGRVTISADKSISTAYLQWSSLKASDTAMYYCAHGHYESYFAMDYWGQGTLVTVSS
VL: DIQMTQSPSSLSASVGDRVTITCKASQDGSSAVAWYQQKPGQAPRLLIYWASTRHTGVPSRFSGSGSGTEFTLTISSLQPDDFATYYCQEHFSTPLTFGQGTKVEIK
For the molecule B12, the values for the Affinity ELISA CPE mutant ratio (1:3, pH 6.0/7.4) in the experiment with Axl [1] and with Axl [3] (setting [5]) were 1.94 and 1.939, respectively. Also, the Affinity ELISA CPE mutant ratio (1:9, pH 6.0/7.4) with Axl [2] is 1.8; with Axl [3] (setting [5]), 1.803.
